Data taken from patent US20140274782A1, “AFFINITY REAGENTS AND METHODS FOR DETECTION, PURIFICATION, AND PROTEOMIC ANALYSIS OF METHYLATED PROTEINS” (The Board of Trustees of the Leland Stanford Junior …, priority 2013, published 2014).

B1: SF3B1 (protein, UniProt O75533 1-1304, looked up)
Splicing factor 3B subunit 1: MAKIAKTHEDIEAQIREIQGKKAALDEAQGVGLDSTGYYDQEIYGGSDSRFAGYVTSIAATELEDDDDDYSSSTSLLGQKKPGYHAPVALLNDIPQSTEQYDPFAEHRPPKIADREDEYKKHRRTMIISPERLDPFADGGKTPDPKMNARTYMDVMREQHLTKEEREIRQQLAEKAKAGELKVVNGAAASQPPSKRKRRWDQTADQTPGATPKKLSSWDQAETPGHTPSLRWDETPGRAKGSETPGATPGSKIWDPTPSHTPAGAATPGRGDTPGHATPGHGGATSSARKNRWDETPKTERDTPGHGSGWAETPRTDRGGDSIGETPTPGASKRKSRWDETPASQMGGSTPVLTPGKTPIGTPAMNMATPTPGHIMSMTPEQLQAWRWEREIDERNRPLSDEELDAMFPEGYKVLPPPAGYVPIRTPARKLTATPTPLGGMTGFHMQTEDRTMKSVNDQPSGNLPFLKPDDIQYFDKLLVDVDESTLSPEEQKERKIMKLLLKIKNGTPPMRKAALRQITDKAREFGAGPLFNQILPLLMSPTLEDQERHLLVKVIDRILYKLDDLVRPYVHKILVVIEPLLIDEDYYARVEGREIISNLAKAAGLATMISTMRPDIDNMDEYVRNTTARAFAVVASALGIPSLLPFLKAVCKSKKSWQARHTGIKIVQQIAILMGCAILPHLRSLVEIIEHGLVDEQQKVRTISALAIAALAEAATPYGIESFDSVLKPLWKGIRQHRGKGLAAFLKAIGYLIPLMDAEYANYYTREVMLILIREFQSPDEEMKKIVLKVVKQCCGTDGVEANYIKTEILPPFFKHFWQHRMALDRRNYRQLVDTTVELANKVGAAEIISRIVDDLKDEAEQYRKMVMETIEKIMGNLGAADIDHKLEEQLIDGILYAFQEQTTEDSVMLNGFGTVVNALGKRVKPYLPQICGTVLWRLNNKSAKVRQQAADLISRTAVVMKTCQEEKLMGHLGVVLYEYLGEEYPEVLGSILGALKAIVNVIGMHKMTPPIKDLLPRLTPILKNRHEKVQENCIDLVGRIADRGAEYVSAREWMRICFELLELLKAHKKAIRRATVNTFGYIAKAIGPHDVLATLLNNLKVQERQNRVCTTVAIAIVAETCSPFTVLPALMNEYRVPELNVQNGVLKSLSFLFEYIGEMGKDYIYAVTPLLEDALMDRDLVHRQTASAVVQHMSLGVYGFGCEDSLNHLLNYVWPNVFETSPHVIQAVMGALEGLRVAIGPCRMLQYCLQGLFHPARKVRDVYWKIYNSIYIGSQDALIAHYPRIYNDDKNTYIRYELDYIL
B2: DSTN (protein, UniProt P60981 2-165, looked up)
Destrin: ASGVQVADEVCRIFYDMKVRKCSTPEEIKKRKKAVIFCLSADKKCIIVEEGKEILVGDVGVTITDPFKHFVGMLPEKDCRYALYDASFETKESRKEELMFFLWAPELAPLKSKMIYASSKDAIKKKFQGIKHECQANGPEDLNRACIAEKLGGSLIVAFEGCPV
B3: SH3PXD2B (protein, UniProt A1X283 1-911, looked up)
SH3 and PX domain-containing …: MPPRRSIVEVKVLDVQKRRVPNKHYVYIIRVTWSSGSTEAIYRRYSKFFDLQMQMLDKFPMEGGQKDPKQRIIPFLPGKILFRRSHIRDVAVKRLIPIDEYCKALIQLPPYISQCDEVLQFFETRPEDLNPPKEEHIGKKKSGGDQTSVDPMVLEQYVVVANYQKQESSEISLSVGQVVDIIEKNESGWWFVSTAEEQGWVPATCLEGQDGVQDEFSLQPEEEEKYTVIYPYTARDQDEMNLERGAVVEVIQKNLEGWWKIRYQGKEGWAPASYLKKNSGEPLPPKPGPGSPSHPGALDLDGVSRQQNAVGREKELLSSQRDGRFEGRPVPDGDAKQRSPKMRQRPPPRRDMTIPRGLNLPKPPIPPQVEEEYYTIAEFQTTIPDGISFQAGLKVEVIEKNLSGWWYIQIEDKEGWAPATFIDKYKKTSNASRPNFLAPLPHEVTQLRLGEAAALENNTGSEATGPSRPLPDAPHGVMDSGLPWSKDWKGSKDVLRKASSDMSASAGYEEISDPDMEEKPSLPPRKESIIKSEGELLERERERQRTEQLRGPTPKPPGVILPMMPAKHIPPARDSRRPEPKPDKSRLFQLKNDMGLECGHKVLAKEVKKPNLRPISKSKTDLPEEKPDATPQNPFLKSRPQVRPKPAPSPKTEPPQGEDQVDICNLRSKLRPAKSQDKSLLDGEGPQAVGGQDVAFSRSFLPGEGPGRAQDRTGKQDGLSPKEISCRAPPRPAKTTDPVSKSVPVPLQEAPQQRPVVPPRRPPPPKKTSSSSRPLPEVRGPQCEGHESRAAPTPGRALLVPPKAKPFLSNSLGGQDDTRGKGSLGPWGTGKIGENREKAAAASVPNADGLKDSLYVAVADFEGDKDTSSFQEGTVFEVREKNSSGWWFCQVLSGAPSWEGWIPSNYLRKKP

Tested on: 3×MBT domain of L3MBTL1
Experiment: Triple SILAC pull-down, 3xMBT/3xMBTD355N ratio (cytoplasmic, nuclear and chromatin fractions of 293T cells);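 also: proteins quantified with MaxQuant, requiring at least two unique peptides and quantification in both label directions, normalized to the mean of proteins from a digested loading control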
Format: binding, human
Details: SILAC ratio, pull-down 3xMBT vs 3xMBTD355N; experiment with UNC0638 in heavy SILAC media

Compared with B1, B2 is lower in “3xMBT/D355N UNC Heavy” value: 3.17 log base 2 for the first, 3.00 log base 2 for the second.

For B3, the “3xMBT/D355N UNC Heavy” value was 3.07 log base 2.

Same assay, conditions: SILAC ratio, pull-down 3xMBT vs 3xMBTD355N; experiment with UNC0638 in light SILAC media

Going from B1 to B2, the “3xMBT/D355N UNC Light” value falls from 3.31 log base 2 to 2.54 log base 2.

For B3, the “3xMBT/D355N UNC Light” value was 3.71 log base 2.

Target: T1, G9a and GLP (Homo sapiens, UniProt Q96KQ7+Q9H9B1)
T1 sequence (Q96KQ7 2-1210 limits assumed): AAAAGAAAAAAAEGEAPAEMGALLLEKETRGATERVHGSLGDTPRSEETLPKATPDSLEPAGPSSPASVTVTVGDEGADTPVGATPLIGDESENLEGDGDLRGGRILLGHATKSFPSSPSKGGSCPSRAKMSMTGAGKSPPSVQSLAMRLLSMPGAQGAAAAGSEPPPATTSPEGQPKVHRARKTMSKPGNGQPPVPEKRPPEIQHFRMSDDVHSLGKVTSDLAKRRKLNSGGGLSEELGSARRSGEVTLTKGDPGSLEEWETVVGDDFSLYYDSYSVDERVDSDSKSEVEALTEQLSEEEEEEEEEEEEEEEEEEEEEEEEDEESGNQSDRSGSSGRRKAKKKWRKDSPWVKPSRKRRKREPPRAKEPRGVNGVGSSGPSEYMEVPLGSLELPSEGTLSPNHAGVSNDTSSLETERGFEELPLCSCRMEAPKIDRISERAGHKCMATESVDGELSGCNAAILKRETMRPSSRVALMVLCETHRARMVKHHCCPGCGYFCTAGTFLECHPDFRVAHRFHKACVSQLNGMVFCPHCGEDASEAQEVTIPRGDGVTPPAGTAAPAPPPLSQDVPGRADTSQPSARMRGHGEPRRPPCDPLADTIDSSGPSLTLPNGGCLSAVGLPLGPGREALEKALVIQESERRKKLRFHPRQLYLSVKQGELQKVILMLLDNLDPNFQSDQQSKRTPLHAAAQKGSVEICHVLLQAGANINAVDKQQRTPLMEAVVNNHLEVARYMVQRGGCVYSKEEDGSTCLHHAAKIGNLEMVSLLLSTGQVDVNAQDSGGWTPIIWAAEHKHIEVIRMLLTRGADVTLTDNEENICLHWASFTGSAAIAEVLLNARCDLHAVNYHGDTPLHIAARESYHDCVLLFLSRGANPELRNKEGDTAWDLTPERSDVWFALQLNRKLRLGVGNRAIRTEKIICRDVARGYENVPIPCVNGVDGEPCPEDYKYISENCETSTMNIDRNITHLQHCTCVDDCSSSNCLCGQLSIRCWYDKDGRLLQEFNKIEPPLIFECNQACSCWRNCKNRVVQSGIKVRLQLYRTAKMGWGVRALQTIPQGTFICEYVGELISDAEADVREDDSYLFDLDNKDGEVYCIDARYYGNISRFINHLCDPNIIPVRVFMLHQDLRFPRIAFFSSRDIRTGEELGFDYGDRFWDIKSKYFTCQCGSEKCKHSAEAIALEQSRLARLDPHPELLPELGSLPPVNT
T1 sequence (Q9H9B1 2-1298 limits assumed): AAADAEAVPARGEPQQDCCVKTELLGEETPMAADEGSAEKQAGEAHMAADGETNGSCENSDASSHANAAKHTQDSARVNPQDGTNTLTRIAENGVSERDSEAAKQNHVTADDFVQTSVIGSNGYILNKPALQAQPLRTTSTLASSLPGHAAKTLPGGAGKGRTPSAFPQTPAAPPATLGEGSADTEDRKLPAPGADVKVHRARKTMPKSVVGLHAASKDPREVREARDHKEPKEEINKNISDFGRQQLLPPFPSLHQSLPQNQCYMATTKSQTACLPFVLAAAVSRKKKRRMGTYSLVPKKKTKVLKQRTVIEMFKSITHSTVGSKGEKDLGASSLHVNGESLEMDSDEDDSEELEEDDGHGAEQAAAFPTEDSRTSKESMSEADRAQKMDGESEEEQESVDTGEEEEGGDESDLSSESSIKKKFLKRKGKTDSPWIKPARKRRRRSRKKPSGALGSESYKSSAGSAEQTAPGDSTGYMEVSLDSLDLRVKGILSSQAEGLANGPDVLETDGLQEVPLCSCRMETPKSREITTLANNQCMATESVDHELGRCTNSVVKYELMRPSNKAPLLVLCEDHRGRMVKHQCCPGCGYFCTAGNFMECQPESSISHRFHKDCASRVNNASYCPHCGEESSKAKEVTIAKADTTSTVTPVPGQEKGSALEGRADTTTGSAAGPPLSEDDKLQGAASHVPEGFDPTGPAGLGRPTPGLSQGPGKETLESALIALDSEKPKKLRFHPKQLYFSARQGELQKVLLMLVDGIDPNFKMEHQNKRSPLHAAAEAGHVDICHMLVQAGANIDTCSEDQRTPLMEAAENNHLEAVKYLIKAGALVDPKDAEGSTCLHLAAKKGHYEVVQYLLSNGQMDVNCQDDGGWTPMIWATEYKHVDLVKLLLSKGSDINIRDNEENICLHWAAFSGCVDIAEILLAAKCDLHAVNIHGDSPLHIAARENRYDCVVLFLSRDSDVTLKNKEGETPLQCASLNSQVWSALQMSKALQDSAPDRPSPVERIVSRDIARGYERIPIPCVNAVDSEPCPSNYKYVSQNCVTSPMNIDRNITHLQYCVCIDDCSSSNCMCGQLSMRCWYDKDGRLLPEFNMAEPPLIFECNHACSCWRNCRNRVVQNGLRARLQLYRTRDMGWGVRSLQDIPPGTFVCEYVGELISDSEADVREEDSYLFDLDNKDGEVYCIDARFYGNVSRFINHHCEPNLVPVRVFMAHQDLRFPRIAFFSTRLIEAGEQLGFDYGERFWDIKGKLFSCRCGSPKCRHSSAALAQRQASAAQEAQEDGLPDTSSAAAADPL
Experiment: Triple SILAC pull-down after UNC0638 treatment of 293T cells, DMSO/UNC0638 ratio of protein captured by 3×MBT;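 also: mass spectrometry (Q-Exactive) SILAC quantitation, DMSO/UNC0638 ratio computed after subtracting 3×MBTD355N mutant pull-down background, only proteins with at least twofold 3×MBT over mutant signal considered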
Format: cell-based
Parameters: endogenous in cells; host or cells: HEK 293T
Details: SILAC ratio DMSO/UNC0638 of protein pulled down with 3xMBT; UNC0638 in heavy SILAC media

Compared with B1, B2 is higher in “Relative to UNC0638 UNC Heavy” value: 0.11 log base 2 for the first, 0.24 log base 2 for the second.

In the case of B3, the “Relative to UNC0638 UNC Heavy” value is reported as −0.09 log base 2.

Same assay, conditions: SILAC ratio DMSO/UNC0638 of protein pulled down with 3xMBT; UNC0638 in light SILAC media

Compared with B1, B2 is lower in “Relative to UNC0638 UNC Light” value: 0.18 log base 2 for the first, 0.04 log base 2 for the second.

For B3, the “Relative to UNC0638 UNC Light” value was 0.37 log base 2.

Same assay, conditions: average of UNC Light and UNC Heavy experiments

B1 and B2 are the same in “Relative to UNC0638 Average” value: 0.14 log base 2 for the first, 0.14 log base 2 for the second.

In the case of B3, the “Relative to UNC0638 Average” value is reported as 0.14 log base 2.
